Measurements reported in patent publication US20120214741A1.

Target: native mVDAC1-GFP (mouse) (UniProt Q60932)
Assay: cell-based or functional assay

Chain of native mVDAC1-GFP (mouse) (Q60932 14-296): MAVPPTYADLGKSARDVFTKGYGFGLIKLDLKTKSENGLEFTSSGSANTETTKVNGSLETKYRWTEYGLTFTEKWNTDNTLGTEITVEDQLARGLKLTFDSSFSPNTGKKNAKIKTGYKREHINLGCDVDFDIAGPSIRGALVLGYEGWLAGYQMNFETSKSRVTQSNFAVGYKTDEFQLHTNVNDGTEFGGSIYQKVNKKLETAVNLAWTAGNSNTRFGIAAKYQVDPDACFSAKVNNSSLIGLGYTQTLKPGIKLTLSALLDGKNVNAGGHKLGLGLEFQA

Substance: recombinant HK-I over-expressed in cells (pcDNA3.1-HisA-HK-I) (enzyme)
- apoptotic cell death of cells over-expressing HK-I and mVDAC1-GFP: < 10%
